According to publication PMC6393309 (Nucleic Acids Research, 2019):
Where “and” joins values, the source holds several entries; their conditions need not be identical. Identical values can stand only once. Entries after “also recorded” stand apart in the source; their conditions may differ. Like-named read-outs stand apart in the source and are kept apart here. Residues, ends and D or L forms follow the SMILES beside them. No end group written: not given here. *: point of attachment. 5FAM = O=C1OC2(c3ccc(O)cc3Oc3cc(O)ccc32)c2ccc(C(=O)*)cc21

B2: λ Exonuclease, full-length, untagged (enzyme)
chain: MTPDIILQRTGIDVRAVEQGDDAWHKLRLGVITASEVHNVIAKPRSGKKWPDMKMSYFHTLLAEVCTGVAPEVNAKALAWGKQYENDARTLFEFTSGVNVTESPIIYRDESMRTACSPDGLCSDGNGLELKCPFTSRDFMKFRLGGFEAIKSAYMAQVQYSMWVTRKNAWYFANYDPRMKREGLHYVVIERDEKYMASFDEIVPEFIEKMDEALAEIGFVFGEQWR

How the values were obtained:
[1] = molecular target: T1, Redβ (Escherichia phage lambda, UniProt P03698); experiment: Fluorescence anisotropy binding of SSB-Ct peptide to Redβ; design: species or system Bacteriophage λ; details: 20 nM FAM-WMDFDDDIPA, full-length Redβ, pH 7.5, 25°C
T1 sequence (P03698 1-261): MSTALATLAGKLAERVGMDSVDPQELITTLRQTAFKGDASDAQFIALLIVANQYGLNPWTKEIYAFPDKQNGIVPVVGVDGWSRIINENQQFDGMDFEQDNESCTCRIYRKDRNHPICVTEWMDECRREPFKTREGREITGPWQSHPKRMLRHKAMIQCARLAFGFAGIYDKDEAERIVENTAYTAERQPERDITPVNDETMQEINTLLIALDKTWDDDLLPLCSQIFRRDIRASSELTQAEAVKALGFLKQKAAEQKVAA

[2] = molecular target: T2, λ Exo – Redβ complex (Escherichia phage lambda, UniProt P03698); experiment: Fluorescence anisotropy binding of SSB-Ct peptide to λ Exo–Redβ complex; design: species or system Bacteriophage λ
T2 sequence (P03698 1-261): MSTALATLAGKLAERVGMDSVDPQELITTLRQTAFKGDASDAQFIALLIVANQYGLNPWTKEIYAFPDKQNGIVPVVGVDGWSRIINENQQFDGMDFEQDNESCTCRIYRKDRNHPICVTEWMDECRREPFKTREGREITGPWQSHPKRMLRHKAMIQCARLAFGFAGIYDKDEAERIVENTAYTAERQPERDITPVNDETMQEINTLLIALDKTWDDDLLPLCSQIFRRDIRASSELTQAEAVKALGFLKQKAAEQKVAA

[3] = cited from earlier work
[4] = tested on: λ Exo; details: cited from earlier work
[5] = cited from earlier work; for dsDNA relative to ssDNA recombination: individual CTD mutations
[6] = molecular target: the molecule itself; experiment: crystal structure
[7] = tested on: SSB; details: cited from earlier work
[8] = molecular target: B2; experiment: crystal structure
[9] = tested on: ssDNA or dsDNA; details: cited from earlier work
[10] = tested on: GB2005 E. coli cells; experiment: dsDNA recombination assay; type: cell-based; details: % of WT colonies per 10^8 viable cells
[11] = tested on: GB2005 E. coli cells; experiment: ssDNA recombination assay; type: cell-based; details: % of WT colonies per 10^8 viable cells
[12] = molecular target: T3, complex of λ Exo and full-length untagged Redβ (bacteriophage λ, UniProt P03697;P03698); experiment: fluorescence polarisation
T3 sequence 1: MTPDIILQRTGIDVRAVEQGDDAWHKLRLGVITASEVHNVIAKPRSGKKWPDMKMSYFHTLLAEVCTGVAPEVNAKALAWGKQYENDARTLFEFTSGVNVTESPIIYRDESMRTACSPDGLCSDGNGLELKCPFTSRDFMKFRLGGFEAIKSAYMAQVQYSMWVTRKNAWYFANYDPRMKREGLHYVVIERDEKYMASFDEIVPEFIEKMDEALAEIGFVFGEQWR
T3 sequence 2: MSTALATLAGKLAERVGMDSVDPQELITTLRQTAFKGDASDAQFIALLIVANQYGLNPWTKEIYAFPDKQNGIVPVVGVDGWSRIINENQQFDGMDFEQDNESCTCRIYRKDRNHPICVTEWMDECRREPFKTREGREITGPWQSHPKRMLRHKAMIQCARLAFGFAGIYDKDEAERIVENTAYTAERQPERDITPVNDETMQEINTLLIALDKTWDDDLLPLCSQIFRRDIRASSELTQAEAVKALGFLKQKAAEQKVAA

[13] = molecular target: T4, Redβ, full-length, untagged (wild type) (bacteriophage λ, UniProt P03698 1-261); experiment: fluorescence polarisation
T4 sequence: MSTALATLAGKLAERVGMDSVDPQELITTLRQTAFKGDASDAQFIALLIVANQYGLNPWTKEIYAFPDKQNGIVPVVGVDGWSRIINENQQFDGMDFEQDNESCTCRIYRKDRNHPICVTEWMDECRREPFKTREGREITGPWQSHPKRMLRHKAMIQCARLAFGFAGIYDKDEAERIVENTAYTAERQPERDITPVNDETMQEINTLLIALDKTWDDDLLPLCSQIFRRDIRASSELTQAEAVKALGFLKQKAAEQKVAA

[14] = molecular target: T5, 6His-tagged Escherichia coli exonuclease I (Escherichia coli, UniProt P04995 1-475); experiment: fluorescence polarisation
T5 sequence: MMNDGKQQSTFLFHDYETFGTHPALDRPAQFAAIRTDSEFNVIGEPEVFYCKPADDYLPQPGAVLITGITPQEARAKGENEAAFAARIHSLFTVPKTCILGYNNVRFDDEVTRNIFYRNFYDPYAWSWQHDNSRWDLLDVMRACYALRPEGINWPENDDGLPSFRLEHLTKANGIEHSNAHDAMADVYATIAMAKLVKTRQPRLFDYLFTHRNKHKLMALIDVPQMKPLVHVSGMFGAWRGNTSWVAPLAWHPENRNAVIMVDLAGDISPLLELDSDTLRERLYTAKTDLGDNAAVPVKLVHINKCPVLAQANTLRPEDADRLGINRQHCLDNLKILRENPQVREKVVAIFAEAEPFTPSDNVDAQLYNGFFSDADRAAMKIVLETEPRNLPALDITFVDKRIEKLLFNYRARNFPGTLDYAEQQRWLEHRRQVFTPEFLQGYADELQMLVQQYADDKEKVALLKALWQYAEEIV

With “FAM-WMDFDDDIPA [SSB-Ct peptide with the F177A mutation]” the “binding of F177A SSB-Ct peptide to Redβ” value [1] was “completely failed to interact; also recorded: fails to bind”.

Molecule `CC[C@H](C)[C@H](NC(=O)[C@H](CC(=O)O)NC(=O)[C@H](CC(=O)O)NC(=O)[C@H](CC(=O)O)NC(=O)[C@H](Cc1ccccc1)NC(=O)[C@H](CC(=O)O)NC(=O)[C@H](CCSC)NC(=O)[C@H](Cc1c[nH]c2ccccc12)NC(=O)c1ccc2c(c1)C(=O)OC21c2ccc(O)cc2Oc2cc(O)ccc21)C(=O)N1CCC[C@H]1C(=O)N[C@@H](Cc1ccccc1)C(=O)O` [SSB-Ct, FAM-WMDFDDDIPF] (5FAM-WMDFDDDIPF-OH) has a Kd [2] of 12.8 ± 3.5 µM.

B1: Redβ^1–250: variant of Redβ lacking the C-terminal 11 residues (protein)
chain: MSTALATLAGKLAERVGMDSVDPQELITTLRQTAFKGDASDAQFIALLIVANQYGLNPWTKEIYAFPDKQNGIVPVVGVDGWSRIINENQQFDGMDFEQDNESCTCRIYRKDRNHPICVTEWMDECRREPFKTREGREITGPWQSHPKRMLRHKAMIQCARLAFGFAGIYDKDEAERIVENTAYTAERQPERDITPVNDETMQEINTLLIALDKTWDDDLLPLCSQIFRRDIRASSELTQAEAVKALGFL
In the case of B1, the ssDNA recombination [3] is given as “completely disrupts”, the “interaction with λ Exo” value ([4]; Ni-spin pull down) is given as “completely disrupts the interaction with λ Exo” and the dsDNA recombination [5] is given as “completely disrupts”.

For B2, the “stoichiometry N” value [6] was 3.

B3: YbcN: Orf homolog from E. coli cryptic prophage DLP12 (protein, UniProt Q47269 1-151, looked up)
Uncharacterized protein YbcN: MNLSQDGIKLHRGNFTAIGRQIQPYLEEGKCFRMVLKPWREKRSLSQNALSHMWYSEISEYLISRGKTFATPAWVKDALKHTYLGYETKDLVDVVTGDITTIQSLRHTSDLDTGEMYVFLCKVEAWAMNIGCHLTIPQSCEFQLLRDKQEA
In the case of B3, the “requirement of SSB C-tail for interaction with SSB” value [7] is listed as “does require the C-tail for its interaction with SSB”.

B4: Redβ C-terminal domain (residues 183-261) (domain or fragment)
chain: AYTAERQPERDITPVNDETMQEINTLLIALDKTWDDDLLPLCSQIFRRDIRASSELTQAEAVKALGFLKQKAAEQKVAA
For B4, the “interaction with λ Exo” value ([4]; Ni-spin pull down) is given as “clear interaction”, the binding result [8] is given as “binds” and the “interaction with ssDNA or dsDNA” value [9] is given as “no interaction with ssDNA or dsDNA”.

B5: E256A Redβ: Redβ variant (protein)
chain: MSTALATLAGKLAERVGMDSVDPQELITTLRQTAFKGDASDAQFIALLIVANQYGLNPWTKEIYAFPDKQNGIVPVVGVDGWSRIINENQQFDGMDFEQDNESCTCRIYRKDRNHPICVTEWMDECRREPFKTREGREITGPWQSHPKRMLRHKAMIQCARLAFGFAGIYDKDEAERIVENTAYTAERQPERDITPVNDETMQEINTLLIALDKTWDDDLLPLCSQIFRRDIRASSELTQAEAVKALGFLKQKAAAQKVAA
For B5, the “DS (%): dsDNA recombination compared to WT” value [10] was 69%, the “DS (%): dsDNA recombination compared to WT” value ([10]; listed as E256A) was 55–106% and the “SS (%): ssDNA recombination compared to WT” value [11] was 55%. For the same molecule, the “SS (%): ssDNA recombination compared to WT” value ([11]; listed as E256A) was 13 to 101% and the “dsDNA relative to ssDNA recombination” value [5] was “decreased dsDNA more than ssDNA recombination”.

B6: Q240A (protein, UniProt P03698 1-261, looked up, variant Q240A)
Recombination protein bet: MSTALATLAGKLAERVGMDSVDPQELITTLRQTAFKGDASDAQFIALLIVANQYGLNPWTKEIYAFPDKQNGIVPVVGVDGWSRIINENQQFDGMDFEQDNESCTCRIYRKDRNHPICVTEWMDECRREPFKTREGREITGPWQSHPKRMLRHKAMIQCARLAFGFAGIYDKDEAERIVENTAYTAERQPERDITPVNDETMQEINTLLIALDKTWDDDLLPLCSQIFRRDIRASSELTAAEAVKALGFLKQKAAEQKVAA
In the case of B6, the “interaction with λ Exo” value [4] is listed as “weakened (but did not abolish) the interaction with λ Exo” and the “dsDNA relative to ssDNA recombination” value [5] is listed as “disrupted dsDNA and ssDNA equally”.

B7: SSB C-terminal peptide, fluorescein-labeled (FAM-WMDFDDDIPF) (peptide)
peptide: {FAM}-WMDFDDDIPF
For B7, the Kd [12] was 12.8 µM and 12 µM, the Kd [13] was 10.6 µM and the Kd [14] was 0.098 µM.
